According to patent publication US7501496:
pIC50, pKd: −log10 of the molar value. Blank lines part the entries; values can stand above or below the substance they belong to.

Experiments:
[1] = target: complement factor C1q (recombinant C1q) (human) (UniProt P02745); assay: ELISA; coated antibody, recombinant C1q, maximum binding at 10 µg/ml
[2] = target: complement factor C1q (recombinant C1q) (human) (UniProt P02745); assay: ELISA; plate coated with serially diluted antibody, recombinant C1q added, anti-C1q detection
[3] = target: activated C3c (generated via activation of C3, from human pooled serum) (human) (UniProt P01024); assay: cell-based or functional assay
Sequence of activated C3c (generated via activation of C3, from human pooled serum) (human) (P01024 23-1663 limits assumed): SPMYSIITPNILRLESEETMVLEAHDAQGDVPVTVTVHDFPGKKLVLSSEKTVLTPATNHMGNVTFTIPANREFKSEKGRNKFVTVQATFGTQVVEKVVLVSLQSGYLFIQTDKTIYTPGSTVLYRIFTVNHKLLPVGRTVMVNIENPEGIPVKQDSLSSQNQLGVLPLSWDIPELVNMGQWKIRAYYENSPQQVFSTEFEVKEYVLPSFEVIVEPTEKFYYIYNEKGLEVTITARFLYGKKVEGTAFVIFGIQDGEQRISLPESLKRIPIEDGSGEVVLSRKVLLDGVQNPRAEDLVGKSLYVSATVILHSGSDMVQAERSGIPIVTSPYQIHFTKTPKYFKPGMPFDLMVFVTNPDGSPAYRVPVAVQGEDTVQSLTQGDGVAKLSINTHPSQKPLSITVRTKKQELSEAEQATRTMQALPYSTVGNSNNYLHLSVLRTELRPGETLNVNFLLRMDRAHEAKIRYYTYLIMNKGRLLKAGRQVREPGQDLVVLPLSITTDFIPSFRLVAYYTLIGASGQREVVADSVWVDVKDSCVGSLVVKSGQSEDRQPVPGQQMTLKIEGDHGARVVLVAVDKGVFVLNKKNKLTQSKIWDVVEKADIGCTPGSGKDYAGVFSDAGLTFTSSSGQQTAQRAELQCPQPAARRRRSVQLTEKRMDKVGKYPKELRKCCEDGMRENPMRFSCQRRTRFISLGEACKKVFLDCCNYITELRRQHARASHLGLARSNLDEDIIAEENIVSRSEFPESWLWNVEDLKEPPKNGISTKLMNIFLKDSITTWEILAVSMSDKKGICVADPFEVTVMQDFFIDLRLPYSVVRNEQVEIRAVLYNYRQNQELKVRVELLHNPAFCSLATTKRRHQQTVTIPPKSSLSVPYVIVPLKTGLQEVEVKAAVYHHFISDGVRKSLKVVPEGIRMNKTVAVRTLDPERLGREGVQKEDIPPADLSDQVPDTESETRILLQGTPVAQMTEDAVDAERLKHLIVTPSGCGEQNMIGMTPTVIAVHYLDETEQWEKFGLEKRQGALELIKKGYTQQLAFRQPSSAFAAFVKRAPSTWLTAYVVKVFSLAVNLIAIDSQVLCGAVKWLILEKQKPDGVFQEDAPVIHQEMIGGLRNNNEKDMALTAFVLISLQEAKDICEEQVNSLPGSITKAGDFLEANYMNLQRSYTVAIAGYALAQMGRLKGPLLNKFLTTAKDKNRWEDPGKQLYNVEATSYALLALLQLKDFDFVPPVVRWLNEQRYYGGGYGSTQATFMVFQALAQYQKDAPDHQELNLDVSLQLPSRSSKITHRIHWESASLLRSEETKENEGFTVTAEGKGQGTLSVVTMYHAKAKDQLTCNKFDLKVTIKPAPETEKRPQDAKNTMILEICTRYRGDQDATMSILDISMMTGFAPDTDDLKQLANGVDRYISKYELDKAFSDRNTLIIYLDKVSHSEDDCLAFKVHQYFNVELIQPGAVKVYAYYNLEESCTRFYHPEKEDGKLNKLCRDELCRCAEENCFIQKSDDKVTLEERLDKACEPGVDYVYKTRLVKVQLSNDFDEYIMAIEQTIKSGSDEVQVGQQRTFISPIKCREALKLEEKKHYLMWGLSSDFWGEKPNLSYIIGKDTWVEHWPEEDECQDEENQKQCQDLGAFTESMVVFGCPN

[4] = target: human OX40L expressed on cells (K562-hOX40L cells; HUVEC) (human) (UniProt P23510); assay: FACS on HUVEC; <KLH> 10 µg/ml 2.5 h, no staining antibody, secondary anti-human IgG-Alexa488 (media control 5.17)
Sequence of human OX40L expressed on cells (K562-hOX40L cells; HUVEC) (human) (P23510 whole entry, the tested form may be a part): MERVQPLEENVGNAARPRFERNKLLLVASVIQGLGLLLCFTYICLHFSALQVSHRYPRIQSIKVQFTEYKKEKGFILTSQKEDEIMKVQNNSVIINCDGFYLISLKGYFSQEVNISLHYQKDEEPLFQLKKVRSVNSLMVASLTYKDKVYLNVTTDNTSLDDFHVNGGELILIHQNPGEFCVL

[5] = target: human OX40L expressed on cells (K562-hOX40L cells; HUVEC) (human) (UniProt P23510); assay: FACS on HUVEC; <KLH> 10 µg/ml 24 h, no staining antibody, secondary anti-human IgG-Alexa488 (media control 5.39)
[6] = target: Recombinant soluble human OX40L fused to a Histidine tag (human) (UniProt P23510); assay: SPR, Biacore 3000; antibody captured via anti-Fcγ on CM5, hOX40L-His as analyte, 1:1 Langmuir fit
Sequence of Recombinant soluble human OX40L fused to a Histidine tag (human) (P23510 51-183): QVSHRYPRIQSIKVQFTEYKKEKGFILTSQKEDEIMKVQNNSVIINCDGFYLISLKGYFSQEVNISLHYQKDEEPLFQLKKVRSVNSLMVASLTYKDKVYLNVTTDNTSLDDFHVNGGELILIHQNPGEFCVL

[7] = target: human OX40L expressed on cells (K562-hOX40L cells; HUVEC) (human) (UniProt P23510); assay: FACS on HUVEC; media control 24 h, then staining with TAG-34, secondary anti-murine IgG-Alexa488
[8] = target: human OX40L expressed on cells (K562-hOX40L cells; HUVEC) (human) (UniProt P23510); assay: FACS on HUVEC; TAG34 10 µg/ml 24 h, restaining with TAG-34, secondary anti-murine IgG-Alexa488 (down-modulation of hOX40L)
[9] = target: Recombinant soluble human OX40L fused to a Histidine tag (human) (UniProt P23510); assay: SPR competition; hOX40L-His (10 nM) preincubated with antibody (0.78-100 nM), injected over immobilized OX40-hFc
[10] = target: human OX40L expressed on cells (K562-hOX40L cells; HUVEC) (human) (UniProt P23510); assay: blocking FACS on K562_OX40L cells: antibody as competitor, blocked ligand Dig-labelled hOX40:hFc, read with anti-digoxigenin-fluorescein
[11] = target: human OX40L expressed on cells (K562-hOX40L cells; HUVEC) (human) (UniProt P23510); assay: FACS on HUVEC; TAG34 10 µg/ml 2.5 h, restaining with TAG-34, secondary anti-murine IgG-Alexa488 (down-modulation of hOX40L)
[12] = target: human OX40L expressed on cells (K562-hOX40L cells; HUVEC) (human) (UniProt P23510); assay: cell-based or functional assay
[13] = target: human OX40L expressed on cells (K562-hOX40L cells; HUVEC) (human) (UniProt P23510); assay: FACS on HUVEC; <KLH> 24 h, then staining with TAG-34, secondary anti-murine IgG-Alexa488
[14] = target: human OX40L expressed on cells (K562-hOX40L cells; HUVEC) (human) (UniProt P23510); assay: FACS on HUVEC; TAG-34 10 µg/ml 2.5 h, no restaining, secondary anti-murine IgG-Alexa488 (down-modulation of hOX40L)
[15] = target: human OX40L expressed on cells (K562-hOX40L cells; HUVEC) (human) (UniProt P23510); assay: FACS on HUVEC; media control 2.5 h, then staining with TAG-34, secondary anti-murine IgG-Alexa488
[16] = target: human OX40L expressed on cells (K562-hOX40L cells; HUVEC) (human) (UniProt P23510); assay: FACS on HUVEC; <KLH> 2.5 h, then staining with TAG-34, secondary anti-murine IgG-Alexa488
[17] = target: human OX40L expressed on cells (K562-hOX40L cells; HUVEC) (human) (UniProt P23510); assay: FACS on HUVEC; TAG-34 10 µg/ml 24 h, no restaining, secondary anti-murine IgG-Alexa488 (down-modulation of hOX40L)
[18] = target: human OX40L expressed on cells (K562-hOX40L cells; HUVEC) (human) (UniProt P23510); assay: flow cytometry on K562-hOX40L cells, FITC rabbit anti-mouse IgG
[19] = target: human FcγRIIa on stably transfected IIA1.6 cells (human) (UniProt P12318); assay: flow cytometry on IIA1.6 cells with human FcγRIIa, maximum binding at 10 µg/ml
Sequence of human FcγRIIa on stably transfected IIA1.6 cells (human) (P12318 34-317): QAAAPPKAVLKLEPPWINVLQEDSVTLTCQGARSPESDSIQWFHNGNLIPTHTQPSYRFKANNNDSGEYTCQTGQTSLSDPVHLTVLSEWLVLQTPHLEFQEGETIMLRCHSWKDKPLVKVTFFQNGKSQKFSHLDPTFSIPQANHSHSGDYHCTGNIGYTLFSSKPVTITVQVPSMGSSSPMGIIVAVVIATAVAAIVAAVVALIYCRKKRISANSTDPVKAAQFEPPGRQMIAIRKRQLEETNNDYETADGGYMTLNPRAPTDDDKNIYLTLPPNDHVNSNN

[20] = target: human FcγRIIb on stably transfected IIA1.6 cells (human) (UniProt P31994); assay: flow cytometry on IIA1.6 cells with human FcγRIIb, maximum binding at 10 µg/ml
Sequence of human FcγRIIb on stably transfected IIA1.6 cells (human) (P31994 43-310): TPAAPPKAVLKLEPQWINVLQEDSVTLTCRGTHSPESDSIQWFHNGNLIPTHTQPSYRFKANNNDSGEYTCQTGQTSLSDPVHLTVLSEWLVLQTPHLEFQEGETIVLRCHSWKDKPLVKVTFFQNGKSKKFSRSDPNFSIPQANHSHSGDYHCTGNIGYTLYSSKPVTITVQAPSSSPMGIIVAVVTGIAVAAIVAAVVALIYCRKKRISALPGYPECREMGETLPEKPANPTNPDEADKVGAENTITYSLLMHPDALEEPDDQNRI

Sequence of complement factor C1q (recombinant C1q) (human) (P02745 23-245 limits assumed, chain 1 of 3): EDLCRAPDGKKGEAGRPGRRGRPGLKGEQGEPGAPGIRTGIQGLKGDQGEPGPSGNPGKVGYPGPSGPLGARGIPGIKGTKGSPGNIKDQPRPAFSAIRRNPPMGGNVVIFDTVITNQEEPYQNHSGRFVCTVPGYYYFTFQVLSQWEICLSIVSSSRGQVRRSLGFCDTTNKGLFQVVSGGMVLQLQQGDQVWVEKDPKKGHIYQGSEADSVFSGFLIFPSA
Sequence of complement factor C1q (recombinant C1q) (human) (P02746 28-253 limits assumed, chain 2 of 3, further chain): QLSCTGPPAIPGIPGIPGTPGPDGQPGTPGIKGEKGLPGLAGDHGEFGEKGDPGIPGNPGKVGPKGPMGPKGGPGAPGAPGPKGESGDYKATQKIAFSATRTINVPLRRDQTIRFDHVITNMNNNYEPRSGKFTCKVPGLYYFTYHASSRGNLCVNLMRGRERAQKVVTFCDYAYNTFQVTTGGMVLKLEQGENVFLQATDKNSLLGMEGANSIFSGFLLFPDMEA
Sequence of complement factor C1q (recombinant C1q) (human) (P02747 29-245 limits assumed, chain 3 of 3, further chain): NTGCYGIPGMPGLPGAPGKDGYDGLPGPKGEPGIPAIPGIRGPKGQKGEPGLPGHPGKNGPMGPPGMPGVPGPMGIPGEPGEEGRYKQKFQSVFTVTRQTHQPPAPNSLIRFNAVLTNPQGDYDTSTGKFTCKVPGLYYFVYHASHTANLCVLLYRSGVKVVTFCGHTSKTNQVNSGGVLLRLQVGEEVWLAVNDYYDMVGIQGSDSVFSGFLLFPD

Bmax (OD405) [1]: 3.31 OD405
EC50 [2]: 2.57 µg/mL
C3c deposition ELISA, Bmax (OD405) [3]: 2.63 OD405
C3c deposition ELISA, EC50 [3]: 2.16 µg/mL
MFI [4]: 4.76 MFI
MFI [5]: 4.74 MFI
Substance: HuMab antibody directed against Keyhole Limpet Hemocyanin (alpha-KLH)

Bmax (OD405) [1]: 2.69 OD405
EC50 [2]: 4.17 µg/mL
C3c deposition ELISA, Bmax (OD405) [3]: 2.54 OD405
C3c deposition ELISA, EC50 [3]: 5.45 µg/mL
Substance: Human IgG1 (The Binding Site), control antibody

pKd [6]: 9.43
koff [6]: 3.32e-05 s⁻¹
kon [6]: 88400 M⁻¹ s⁻¹
MFI [7]: 25.3 MFI
MFI [8]: 14.9 MFI
pIC50 [9]: 8.15
IC50 (read off the curve) [10]: 1 µg/mL
MFI [11]: 8.97 MFI
IC50, IL-2 release of PHA-activated PBL co-stimulated with K562 OX40L cells [12]: 70 nM
MFI [13]: 31.6 MFI
MFI [14]: 9.44 MFI
MFI [15]: 31.8 MFI
MFI [16]: 30.8 MFI
MFI [17]: 7.39 MFI
EC50 (read off the curve) [18]: 2 µg/mL
Substance: TAG34, anti-human OX40L monoclonal antibody

Bmax (MFI) [19]: 537 MFI
Bmax (MFI) [20]: 419 MFI
Substance: human IgG3 (The Binding Site), control antibody

Bmax (OD405) [1]: 0.353 OD405
C3c deposition ELISA, Bmax (OD405) [3]: 0.095 OD405
Substance: human IgG4 (The Binding Site), control antibody
